Test results reported in the RNAGym collection of RNA variant scans (doi:10.1093/molbev/msab373).

B1: Azoarcus group I ribozyme (parent)
chain: GUGCCUUGCGCCGGGAAACCACGCAAGGGAUGGUGUCAAAUUCGGCGAAACCUAAGCGCCCGCCCGGGCGUAUGGCAACGCCGAGCCAAGCUUCGGCGCCUGCGCCGAUGAAGGUGUAGAGACUAGACGGCACCCACCUAAGGCAAACGCUAUGGUGAAGGCAUAGUCCAGGGAGUGGCGAAAGUCACACAAACCGG

Variants of: B1
Experiment: reverse-splicing fitness (ratio to wild type); higher = more active; in vitro selection; Mg2+ level not given
Outline: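 An in vitro group I ribozyme library with randomized positions was T7-transcribed and gel-purified. In triplicate, 10 pmol RNA in EPPS pH 7.5 was reacted with 50 pmoles of a 30-nt RNA substrate for 1 h at 37 °C across several added MgCl2 levels (1–48 mM), then stopped with EDTA. Products were reverse transcribed from a substrate-complementary primer, PCR-amplified and sequenced (HiSeq 4000). Fitness is a variant's read proportion after selection over that before, normalised to wild type.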

Which reverse-splicing fitness does the source give for C82U A111U A120C A145C C150U C169G U176C here?
The reverse-splicing fitness was 0.00936.

With C82U A111U A120C A145C C150U C169G U176G as the variant, how does the reverse-splicing fitness read?
The reverse-splicing fitness was 0.00538.

Which reverse-splicing fitness does the source give for C82U A111U A120C A145C C150U C169G U176A here?
Its reverse-splicing fitness is 0.0175.

Which reverse-splicing fitness does the source give for C82U A111U A120C A145G C169A U176C here?
The reverse-splicing fitness was 0.0232.

For C82U A111U A120C A145G C169A U176G, which reverse-splicing fitness is on record?
The reverse-splicing fitness was 0.00456.

With C82U A111U A120C A145G C169A U176A as the variant, how does the reverse-splicing fitness read?
The reverse-splicing fitness was 0.0202.

Which reverse-splicing fitness does the source give for C82U A111U A120C A145C C150A U176C here?
The reverse-splicing fitness was 0.00753.

With C82U A111U A120C A145C C150A U176A as the variant, how does the reverse-splicing fitness read?
The reverse-splicing fitness was 0.00819.

For C82U A111U A120C A145C C150A U176G, which reverse-splicing fitness is on record?
The reverse-splicing fitness was 0.00471.

With C82U A111U A120C A145U C150A C169G U176C as the variant, how does the reverse-splicing fitness read?
Its reverse-splicing fitness is 0.0124.

Which reverse-splicing fitness does the source give for C82U A111U A120C A145U C150A C169G U176A here?
Its reverse-splicing fitness is 0.0124.

For C82U A111U A120C A145U C150A C169G U176G, which reverse-splicing fitness is on record?
Its reverse-splicing fitness is 0.00527.

For C82U A111U A120C A145C C150G U176A, which reverse-splicing fitness is on record?
Its reverse-splicing fitness is 0.00494.

For C82U A111U A120C A145C C150G U176G, which reverse-splicing fitness is on record?
The reverse-splicing fitness was 0.00237.

For C82U A111U A120C A145C C150G U176C, which reverse-splicing fitness is on record?
The reverse-splicing fitness was 0.00663.

With C82U A111U A120C A145G C150U C169U U176C as the variant, how does the reverse-splicing fitness read?
The reverse-splicing fitness was 0.0155.

Which reverse-splicing fitness does the source give for C82U A111U A120C A145G C150U C169U U176A here?
The reverse-splicing fitness was 0.0159.

Which reverse-splicing fitness does the source give for C82U A111U A120C A145G C150U C169U U176G here?
Its reverse-splicing fitness is 0.00474.

With C82U A111U A120C A145G U176A as the variant, how does the reverse-splicing fitness read?
The reverse-splicing fitness was 0.0152.

Which reverse-splicing fitness does the source give for C82U A111U A120C A145G U176C here?
Its reverse-splicing fitness is 0.0219.

With C82U A111U A120C A145G U176G as the variant, how does the reverse-splicing fitness read?
The reverse-splicing fitness was 0.00517.

For C82U A111U A120C A145G C150G C169A U176G, which reverse-splicing fitness is on record?
The reverse-splicing fitness was 0.00845.

With C82U A111U A120C A145G C150G C169A U176C as the variant, how does the reverse-splicing fitness read?
The reverse-splicing fitness was 0.0137.

With C82U A111U A120C A145G C150G C169A U176A as the variant, how does the reverse-splicing fitness read?
The reverse-splicing fitness was 0.0133.

With C82U A111U A120C A145U C150A C169U U176A as the variant, how does the reverse-splicing fitness read?
The reverse-splicing fitness was 0.0145.

With C82U A111U A120C A145U C150A C169U U176C as the variant, how does the reverse-splicing fitness read?
Its reverse-splicing fitness is 0.0156.

With C82U A111U A120C A145U C150A C169U U176G as the variant, how does the reverse-splicing fitness read?
The reverse-splicing fitness was 0.00498.

With C82U A111U A120C A145C C150G C169A U176C as the variant, how does the reverse-splicing fitness read?
The reverse-splicing fitness was 0.00591.

With C82U A111U A120C A145C C150G C169A U176G as the variant, how does the reverse-splicing fitness read?
The reverse-splicing fitness was 0.00527.

For C82U A111U A120C A145C C150G C169A U176A, which reverse-splicing fitness is on record?
Its reverse-splicing fitness is 0.00641.

Which reverse-splicing fitness does the source give for C82U A111U A120C A145C C169A U176C here?
Its reverse-splicing fitness is 0.00567.

Which reverse-splicing fitness does the source give for C82U A111U A120C A145C C169A U176G here?
Its reverse-splicing fitness is 0.00392.

For C82U A111U A120C A145C C169A U176A, which reverse-splicing fitness is on record?
Its reverse-splicing fitness is 0.00868.

For C82U A111U A120C A145U C150G, which reverse-splicing fitness is on record?
Its reverse-splicing fitness is 0.0076.

With C82U A111U A120C A145U C150U as the variant, how does the reverse-splicing fitness read?
Its reverse-splicing fitness is 0.0196.

For C82U A111U A120C A145U C150A, which reverse-splicing fitness is on record?
Its reverse-splicing fitness is 0.00878.

Which reverse-splicing fitness does the source give for C82U A111U A120C A145U C150G C169A U176C here?
The reverse-splicing fitness was 0.00923.

With C82U A111U A120C A145U C150G C169A U176G as the variant, how does the reverse-splicing fitness read?
Its reverse-splicing fitness is 0.0051.

With C82U A111U A120C A145U C150G C169A U176A as the variant, how does the reverse-splicing fitness read?
Its reverse-splicing fitness is 0.00915.

With C82U A111U A120C A145G C150U C169G U176A as the variant, how does the reverse-splicing fitness read?
The reverse-splicing fitness was 0.0128.

For C82U A111U A120C A145G C150U C169G U176G, which reverse-splicing fitness is on record?
Its reverse-splicing fitness is 0.00514.

Which reverse-splicing fitness does the source give for C82U A111U A120C A145G C150U C169G U176C here?
The reverse-splicing fitness was 0.016.

With C82U A111U A120C A145G C150A C169U U176C as the variant, how does the reverse-splicing fitness read?
The reverse-splicing fitness was 0.0167.

Which reverse-splicing fitness does the source give for C82U A111U A120C A145G C150A C169U U176G here?
The reverse-splicing fitness was 0.00615.

With C82U A111U A120C A145G C150A C169U U176A as the variant, how does the reverse-splicing fitness read?
The reverse-splicing fitness was 0.0148.

For C82U A111U A120C A145U C150G C169G U176G, which reverse-splicing fitness is on record?
The reverse-splicing fitness was 0.0048.

Which reverse-splicing fitness does the source give for C82U A111U A120C A145U C150G C169G U176A here?
The reverse-splicing fitness was 0.00657.

For C82U A111U A120C A145U C150G C169G U176C, which reverse-splicing fitness is on record?
The reverse-splicing fitness was 0.0054.

With C82U A111U A120C A145U C150U C169U U176G as the variant, how does the reverse-splicing fitness read?
Its reverse-splicing fitness is 0.00516.

With C82U A111U A120C A145U C150U C169U U176A as the variant, how does the reverse-splicing fitness read?
Its reverse-splicing fitness is 0.0145.

Which reverse-splicing fitness does the source give for C82U A111U A120C A145U C150U C169U U176C here?
The reverse-splicing fitness was 0.0157.

Which reverse-splicing fitness does the source give for C82U A111U A120C A145G C150U U176C here?
The reverse-splicing fitness was 0.0214.

Which reverse-splicing fitness does the source give for C82U A111U A120C A145G C150U U176A here?
Its reverse-splicing fitness is 0.0116.

Which reverse-splicing fitness does the source give for C82U A111U A120C A145G C150U U176G here?
The reverse-splicing fitness was 0.00597.

Which reverse-splicing fitness does the source give for C82U A111U A120C A145U C150G C169U U176G here?
The reverse-splicing fitness was 0.00523.

With C82U A111U A120C A145U C150G C169U U176A as the variant, how does the reverse-splicing fitness read?
The reverse-splicing fitness was 0.00894.

Which reverse-splicing fitness does the source give for C82U A111U A120C A145U C150G C169U U176C here?
Its reverse-splicing fitness is 0.0122.

With C82U A111U A120C A145U C150A C169U as the variant, how does the reverse-splicing fitness read?
Its reverse-splicing fitness is 0.00908.

Which reverse-splicing fitness does the source give for C82U A111U A120C A145U C150A C169A here?
Its reverse-splicing fitness is 0.00772.

Which reverse-splicing fitness does the source give for C82U A111U A120C A145U C150A C169G here?
The reverse-splicing fitness was 0.00687.

With C82U A111U A120C A145C C169U U176G as the variant, how does the reverse-splicing fitness read?
The reverse-splicing fitness was 0.00412.

Which reverse-splicing fitness does the source give for C82U A111U A120C A145C C169U U176A here?
The reverse-splicing fitness was 0.013.

Which reverse-splicing fitness does the source give for C82U A111U A120C A145C C169U U176C here?
The reverse-splicing fitness was 0.0109.

Which reverse-splicing fitness does the source give for C82U A111U A120C A145U C150U C169A here?
Its reverse-splicing fitness is 0.00828.

With C82U A111U A120C A145U C150U C169U as the variant, how does the reverse-splicing fitness read?
Its reverse-splicing fitness is 0.0101.

With C82U A111U A120C A145U C150U C169G as the variant, how does the reverse-splicing fitness read?
Its reverse-splicing fitness is 0.00796.

For C82U A111U A120C A145G C150U C169U, which reverse-splicing fitness is on record?
The reverse-splicing fitness was 0.0108.

For C82U A111U A120C A145G C150U C169G, which reverse-splicing fitness is on record?
The reverse-splicing fitness was 0.00811.

Which reverse-splicing fitness does the source give for C82U A111U A120C A145G C150U C169A here?
Its reverse-splicing fitness is 0.00982.

Which reverse-splicing fitness does the source give for C82U A111U A120C A145C C150U U176G here?
The reverse-splicing fitness was 0.00423.

Which reverse-splicing fitness does the source give for C82U A111U A120C A145C C150U U176A here?
Its reverse-splicing fitness is 0.00801.

Which reverse-splicing fitness does the source give for C82U A111U A120C A145C C150U U176C here?
The reverse-splicing fitness was 0.00856.

With C82U A111U A120C A145U C150A U176C as the variant, how does the reverse-splicing fitness read?
Its reverse-splicing fitness is 0.00963.

For C82U A111U A120C A145U C150A U176A, which reverse-splicing fitness is on record?
Its reverse-splicing fitness is 0.0115.

For C82U A111U A120C A145U C150A U176G, which reverse-splicing fitness is on record?
The reverse-splicing fitness was 0.0048.

Which reverse-splicing fitness does the source give for C82U A111U A120C A145G C169G U176G here?
The reverse-splicing fitness was 0.00473.

Which reverse-splicing fitness does the source give for C82U A111U A120C A145G C169G U176A here?
The reverse-splicing fitness was 0.0152.

With C82U A111U A120C A145G C169G U176C as the variant, how does the reverse-splicing fitness read?
Its reverse-splicing fitness is 0.0209.

For C82U A111U A120C A145C C150G C169U, which reverse-splicing fitness is on record?
The reverse-splicing fitness was 0.00848.

With C82U A111U A120C A145C C150G C169A as the variant, how does the reverse-splicing fitness read?
The reverse-splicing fitness was 0.00832.

Which reverse-splicing fitness does the source give for C82U A111U A120C A145C C150G C169G here?
The reverse-splicing fitness was 0.00637.

Which reverse-splicing fitness does the source give for C82U A111U A120C A145C C169A here?
Its reverse-splicing fitness is 0.0065.

Which reverse-splicing fitness does the source give for C82U A111U A120C A145C C169G here?
The reverse-splicing fitness was 0.00709.

Which reverse-splicing fitness does the source give for C82U A111U A120C A145C C169U here?
Its reverse-splicing fitness is 0.011.
